The source of these data is publication PMC2518858.

For experiment [1], the target named is MC179, the CD36-binding portion (M2 subdomain) of the CIDR1α domain of PfEMP1 from the Malayan Camp (MC) strain of P. falciparum (Plasmodium falciparum (Malayan Camp strain)). In words: cross-linking; chemical cross-linking of MC179 in solution (data not shown).
Experiment [2] has the same target. Kind of experiment: SEC; refolded MC179 on a Superdex 75 size exclusion column; species with the mobility of dimers separated from monomers. For orientation: SEC sorts molecules by how far they enter the pores of the column.

In general, stoichiometry N refers to the number of molecules, sites or subunits per partner or assembly. For “MC179, the CD36-binding portion (M2 subdomain) of the CIDR1α domain of PfEMP1 from the Malayan Camp (MC) strain of P. falciparum (domain or fragment)”, the stoichiometry N in experiment [1] and in experiment [2] was 2 in each case.
